The record followed here is patent publication US20160289340A1 (published 2016).

Assay [1] concerns the target T1, BSA control protein (bovine, UniProt P02769 25-607).
T1 construct: Unconjugated BSA used as negative control coating next to SSEA-4-BSA glycoconjugate; also called bovine serum albumin
The assay is described as follows: ELISA, serially diluted IgG on coated BSA, anti-human IgG-HRP. (In an ELISA, binding on a coated surface is turned into a signal by an enzyme label.)

Assay [2] deals with T1, BSA control protein. The assay is described as follows: phage ELISA, serially diluted phage on coated BSA.

T1 sequence (P02769 25-607 limits assumed): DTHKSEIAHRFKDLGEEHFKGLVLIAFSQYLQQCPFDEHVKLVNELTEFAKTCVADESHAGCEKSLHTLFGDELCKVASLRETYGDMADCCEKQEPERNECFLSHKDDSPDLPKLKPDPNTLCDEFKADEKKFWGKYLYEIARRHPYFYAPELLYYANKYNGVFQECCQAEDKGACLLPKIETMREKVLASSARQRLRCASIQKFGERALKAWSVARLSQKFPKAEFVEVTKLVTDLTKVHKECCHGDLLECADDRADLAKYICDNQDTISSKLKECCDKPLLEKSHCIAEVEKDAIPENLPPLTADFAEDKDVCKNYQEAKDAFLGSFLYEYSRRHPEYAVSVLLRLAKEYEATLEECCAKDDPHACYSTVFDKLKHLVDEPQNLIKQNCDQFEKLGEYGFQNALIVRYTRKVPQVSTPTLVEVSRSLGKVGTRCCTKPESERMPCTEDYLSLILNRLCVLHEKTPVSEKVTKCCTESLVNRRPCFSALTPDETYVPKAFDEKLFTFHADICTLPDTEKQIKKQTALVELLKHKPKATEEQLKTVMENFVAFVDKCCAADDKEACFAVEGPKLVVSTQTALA

B1: 3rd humanized MC41 IgG (antibody, V domains shown)
VH: QVQLKESGPGLVAPSKTLSLTCTVSGFSLSSQGVYWIRQPPGKGLEWIGAIWAGGSTNYNSALMSRLSISKDNSKSQVFLKMNSLQTDDTAMYYCARVDGYRGYNMDYWGQGTSVTVSS
VL: ENVLTQSPAIMSATPGEKVTMTCSASSSVSYMHWYQQKSSTSPKLWIYDTSKLASGVPGRFSGSGSGNSYTLTISSMEAEDVATYYCFQGSGYPLTFGAGTKLEIKR
notes: also called humanized 3rd MC41
As to B1, in assay [1], the binding result is “no binding”.

B2: 2nd humanized MC41 IgG (antibody, V domains shown)
VH: QVQLKESGPGLVAPSKTLSLTCTVSGFSLSSQGVYWIRQPPGKGLEWIGAIWAGGSTNYNSALMSRLSISKDNSKSQVFLKMNSLQTDDTAMYYCARVDGYRGYNMDYWGQGTLVTVSS
VL: ENVLTQSPAIMSATPGEKVTMTCSASSSVSYLHWYQQKSSTSPKLWIYDTSKLASGVPGRFSGSGSGNSYTLTISSMEAEDVATYYCFQGSGYPLTFGAGTKLEIKR
notes: also called hMC41; humanized 2nd MC41
Regarding B2, the binding result in assay [1] is listed as “no binding”.

B3: chimeric MC41 (chMC41) (antibody, V domains shown)
VH: QVQLKESGPGLVAPSKSLSITCTVSGFSLSSQGVYWVRQPPGKGLEWLGAIWAGGSTNYNSALMSRLSISKDNSKSQVFLKMNSLQTDDTAMYYCARVDGYRGYNMDYWGQGTSVTVSS
VL: ENVLTQSPAIMSASPGEKVTMTCSASSSVSYMHWYQQKSSTSPKLWIYDTSKLASGVPGRFSGSGSGNSYSLTISSMEAEDVATYYCFQGSGYPLTFGAGTKLELKR
notes: Intact chimeric IgG of MC41
On to B3, for which the binding result in assay [1] was “no binding”.

B4: 3rd scFv phage clone of humanized MC48 variant (scFv)
scFv: QVQLQESGPGLVKPSETLSLTCTVSGFSLTSYGVSWIRQPPGKGLEWIGVIWGEGSTNYHSVLISRLTISKDNSKSQVFLKLNSLQTDDTATYYCAMTGTAYWGQGTLVTVSSGGGGSGGGGSGGGGSQIVLTQSPAIMSASPGEKVTMTCSASSSVSYMHWYQQKPGLAPRLLIYDTSKLSSGVPGRFSGSGSGTSYSLTISRLEAEDAATYYCHQWSSSPHTFGGGTKVEIKR
notes: also called 3rd humanized MC48 scFv phage; hMC48 (3rd)
With B4, in assay [2], the binding result is reported as “no binding”.

B5: 4th scFv phage clone of humanized MC48 variant (scFv)
scFv: QVQLKESGPGLVAPSQSLSITCTVSGFSLTSYGVSWIRQPPGKGLEWIGVIWGEGSTNYHSVLISRLTISKDNSKSQVFLKLNSLQTDDTATYYCAMTGTAYWGQGTLVTVSSGGGGSGGGGSGGGGSQIVLTQSPAIMSASPGEKVTMTCSASSSVSYMHWYQQKSGTSPKRWIYDTSKLSSGVPGRFSGSGSGTSYSLTISRLEAEDAATYYCHQWSSSPHTFGGGTKVEIKR
notes: also called 4th humanized MC48 scFv phage; hMC48 (4th)
In the case of B5, the binding result in assay [2] is “no binding”.
